For orientation: stoichiometry N means a count of units in the complex or per binding partner.

Drawing on paper PMC5595328, this text covers binding signal and stoichiometry N for three substances.

The test system of data set [1] is VarR (Vibrio cholerae O1 biovar El Tor N16961). The experiment in a line: competition. As to conditions: 50 mM Tris-HCl pH 7.5, 5 mM EDTA, 1 mM DTT, 100 ug/ml BSA, 5% glycerol, on ice 10 min; 4% polyacrylamide gel.
The target in data set [2] is VarF ATPase subunit of the VarDEF ABC transporter (Vibrio cholerae (strain CVD101 chromosomal DNA)). In words: SEC; Superdex200 PrepGrade HiLoad 16/60, 20 mM Tris-HCl pH 8.25, 50 mM NaCl, 10% glycerol, 1 ml/minute; Mr from a calibration curve of standards. (In gel filtration, larger molecules generally elute earlier.)
Data set [3] has as its target VarG metallo-β-lactamase (Vibrio cholerae (strain CVD101 chromosomal DNA)). In words: AUC.
Data set [4] shares this target. In words: AUC; sedimentation velocity, 42,000 rpm, 20°C, 280 nm, SEDFIT c(s, fr) and c(s, M).
Data set [5] shares this target. The experiment in a line: SEC; Superdex200 PrepGrade HiLoad 16/60, 20 mM Tris-HCl pH 8.25, 50 mM NaCl, 10% glycerol, 1 ml/minute; Mr from a calibration curve of standards.
For data set [6] the target is unchanged. In words: intact protein ESI Q-TOF mass spectrometry; putative dimer peak from SEC infused directly, positive ion mode, MaxEnt1 deconvolution; 10 μg/mL in the methods, 50 μg/mL in the legend.

Consider 30 bp varR-varG IR, for which the binding signal in data set [1] was 1 ng.
“VarF ATPase subunit of the VarDEF ABC transporter (enzyme)” came in with a stoichiometry N in data set [2] of 2.
As to VarG metallo-β-lactamase (enzyme), the stoichiometry N in data set [3], in data set [4], in data set [5] and in data set [6] was 2 throughout.
